For experiment [1], the target named is (Bs)MifM-stalled RNC (B. subtilis | B. subtilis (endogenous in the B. subtilis 168 extract)) (UniProt Q7WY64). As to the kind of experiment: cryo-EM structure; (Bs)SRP pre-incubated with GMPPNP, tenfold molar excess over MifM-stalled RNCs, 10 min at room temperature.
For experiment [2] the target is unchanged. As to the kind of experiment: cryo-EM structure; (Bs)SRP pre-incubated with pppGpp, tenfold molar excess over MifM-stalled RNCs, 10 min at room temperature.

From publication PMC8881573, “Inhibition of SRP-dependent protein secretion by the bacterial alarmone (p)ppGpp” (Nature Communications, 2022) come the findings set out here.

For the substance “recombinant (Bs)SRP (Ffh and 6S RNA) (from UniProt P37105 1-446) (natural protein)”, the figures for the percent of the particles with stably bound SRP (% of the particles) in experiment [1] and in experiment [2] were 24 and 38, respectively.
